Target: fibronectin (FN)
Test: solid phase ELISA, HEK293T/17 lysate on FN-coated wells, detected with Cub7402, normalised for expression

Sequence of fibronectin (FN) (P02751 32-2477): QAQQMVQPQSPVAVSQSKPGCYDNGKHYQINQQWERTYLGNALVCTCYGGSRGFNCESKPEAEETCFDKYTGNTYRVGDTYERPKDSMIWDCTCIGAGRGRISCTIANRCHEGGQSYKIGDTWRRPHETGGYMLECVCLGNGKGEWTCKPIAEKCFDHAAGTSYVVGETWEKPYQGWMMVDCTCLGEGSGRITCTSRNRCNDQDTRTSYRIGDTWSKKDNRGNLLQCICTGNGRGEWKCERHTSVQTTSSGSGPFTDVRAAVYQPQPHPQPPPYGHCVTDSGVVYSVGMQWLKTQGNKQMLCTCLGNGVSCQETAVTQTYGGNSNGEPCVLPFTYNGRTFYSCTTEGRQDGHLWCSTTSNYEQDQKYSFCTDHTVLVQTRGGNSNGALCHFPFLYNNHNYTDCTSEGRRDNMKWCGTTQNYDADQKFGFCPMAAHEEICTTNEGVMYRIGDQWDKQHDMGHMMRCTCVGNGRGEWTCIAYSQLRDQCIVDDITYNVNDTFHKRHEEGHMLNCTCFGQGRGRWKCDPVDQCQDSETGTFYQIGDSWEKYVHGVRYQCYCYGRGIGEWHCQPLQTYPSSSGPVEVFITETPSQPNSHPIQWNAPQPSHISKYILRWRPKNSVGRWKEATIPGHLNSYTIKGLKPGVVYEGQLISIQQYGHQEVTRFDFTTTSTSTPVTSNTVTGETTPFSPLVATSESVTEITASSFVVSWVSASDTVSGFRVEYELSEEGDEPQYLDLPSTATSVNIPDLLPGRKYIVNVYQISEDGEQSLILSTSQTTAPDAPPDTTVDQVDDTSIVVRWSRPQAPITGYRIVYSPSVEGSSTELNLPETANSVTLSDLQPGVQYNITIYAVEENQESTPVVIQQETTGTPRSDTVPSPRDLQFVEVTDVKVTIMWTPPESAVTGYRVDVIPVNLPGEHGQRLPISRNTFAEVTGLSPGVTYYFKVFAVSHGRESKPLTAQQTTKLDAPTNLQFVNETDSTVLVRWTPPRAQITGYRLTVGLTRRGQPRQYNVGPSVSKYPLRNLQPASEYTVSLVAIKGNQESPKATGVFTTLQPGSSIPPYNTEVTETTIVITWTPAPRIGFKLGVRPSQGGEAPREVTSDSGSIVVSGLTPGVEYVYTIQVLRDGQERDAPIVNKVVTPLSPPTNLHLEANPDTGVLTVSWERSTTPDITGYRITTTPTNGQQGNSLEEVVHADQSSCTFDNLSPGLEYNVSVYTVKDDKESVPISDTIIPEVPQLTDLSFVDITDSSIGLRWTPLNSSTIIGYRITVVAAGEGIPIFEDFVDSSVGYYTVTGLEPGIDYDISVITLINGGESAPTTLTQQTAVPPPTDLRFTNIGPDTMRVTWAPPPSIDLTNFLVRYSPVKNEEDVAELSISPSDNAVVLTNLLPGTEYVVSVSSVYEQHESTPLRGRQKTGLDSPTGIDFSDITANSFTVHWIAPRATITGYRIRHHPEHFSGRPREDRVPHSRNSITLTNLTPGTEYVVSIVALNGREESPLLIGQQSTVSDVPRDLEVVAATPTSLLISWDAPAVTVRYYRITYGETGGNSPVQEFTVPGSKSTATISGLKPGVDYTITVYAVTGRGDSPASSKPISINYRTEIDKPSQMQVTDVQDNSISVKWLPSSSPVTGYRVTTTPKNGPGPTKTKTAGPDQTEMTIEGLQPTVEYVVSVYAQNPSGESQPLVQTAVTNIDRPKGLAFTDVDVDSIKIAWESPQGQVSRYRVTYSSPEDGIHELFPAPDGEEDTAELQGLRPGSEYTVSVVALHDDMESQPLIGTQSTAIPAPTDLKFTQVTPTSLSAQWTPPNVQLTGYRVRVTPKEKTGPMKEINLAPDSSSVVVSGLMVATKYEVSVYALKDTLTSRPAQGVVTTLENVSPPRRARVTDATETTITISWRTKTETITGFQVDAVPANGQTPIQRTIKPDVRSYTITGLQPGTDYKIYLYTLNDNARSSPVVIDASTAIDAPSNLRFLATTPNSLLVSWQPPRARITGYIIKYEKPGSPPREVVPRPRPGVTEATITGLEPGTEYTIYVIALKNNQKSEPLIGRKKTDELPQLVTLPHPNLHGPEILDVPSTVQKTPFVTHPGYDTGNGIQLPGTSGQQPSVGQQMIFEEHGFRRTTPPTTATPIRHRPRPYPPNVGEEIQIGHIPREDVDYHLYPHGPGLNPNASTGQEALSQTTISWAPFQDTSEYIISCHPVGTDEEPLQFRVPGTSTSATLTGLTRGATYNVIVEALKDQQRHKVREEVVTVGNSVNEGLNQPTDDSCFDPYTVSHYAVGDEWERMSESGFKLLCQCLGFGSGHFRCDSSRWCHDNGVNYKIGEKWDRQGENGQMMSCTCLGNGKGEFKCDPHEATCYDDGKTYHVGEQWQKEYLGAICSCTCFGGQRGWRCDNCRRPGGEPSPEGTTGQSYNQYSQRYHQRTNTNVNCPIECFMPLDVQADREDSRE

Row | binding capacity of the wild type | binding compared to wild type TG2 | Substance
1 | 40% | – | N-terminal deletion product of TG2 (Δ1-15) (from UniProt P21980 16-687) (enzyme)
2 | – | 50% | TG2 FN binding site mutant (D94A, D97A) (from UniProt P21980 2-687) (enzyme)
